{
  "source": "the DeepSol protein solubility set",
  "data": [
    {"assay": "soluble on expression in E. coli; label from the status in PepcDB or PDB records", "values": [
      {"sequence": "MAEQRSNIMRLPPSGYRLHRFPPLAQPVAVDEEFGLDNQGWQESQVDIQQQLEAGFQQGLQQGHEEGLRQGIEQGKQQGLLDGQKEGFQKGFVSGEQAGKQGFLEAAKPVNDLFQALSRWQSEKEQQQRHMICELVQKVAQQVIRAELTLMPQQILALVDETLSAMPGKAETVTVHLNPQDLERITHINADLPKSWKLVANNELPIGGCQLVTDDAEADASCDSRLEACMDNVKQHLLDEVSIPQVESENE", "soluble on expression in E. coli": "not soluble"},
      {"sequence": "MTEKTIEFEGIEPVIIFGPYDSYLKKVREAFPDIRINARGAKITIGGDEPDLTAIEKIFREIIFLADQHGEVLENDVNALVSLALSPVSHPSAALSGDKDVIVETKDYVVKAKTDGQRRMVAEAAGNDIVFAIGPAGTGKTYTAVAIAVAAWKAKKIKRIVLARPAVEAGESLGFLPGDLAQKIDPYLRPLYDALQDMLTAEKLKFLTERRVIEIVPLAYMRGRTLNNSFIILDEAQNASSKQMMMCLTRLGVNSKAIITGDVTQVDLPKEMESGLMNAQKILKGIKGISFVFLDKSDVVRHRLVKDIINAYEHHEEGLRKGAPKEAEL", "soluble on expression in E. coli": "not soluble"},
      {"sequence": "GSMTGKSVKDVDRYQAVLANLLLEEDNKFCADCQSKGPRWASWNIGVFICIRCAGIHRNLGVHISRVKSVNLDQWTQEQIQCMQEMGNGKANRLYEAYLPETFRRPQIDPAVEGFIRDKYEKKKYMDRSLDINA", "soluble on expression in E. coli": "soluble"},
      {"sequence": "MGSDKIHHHHHHMATIKDIAARLGVSISTVSKGLNGASDISEELRQTVLDTAVEMGYSTKRSRKVENRKLALFIENMNYESIDEFGYDVVLGFKQNAFKHKWDVDIIPVTPQLQAEEKYDTYILKNGYCGAFLVGFALHDEWMQQLKNTTMPTVLFDNYIENNPNVAYVGTDSYEGIDMAVKHLHNLGHKKIAFINGSLFSLVSDQRQEAFENSMRDAGLEIYPELMGHGYYIPETAQYYVSNFIAAGATAILCGSDTIAKGVISECQLHGFNVPNDISVVGFDDVKFAAALTPPLTTIRQERNDLGRCAYIILNSLIHHIPISRTQLRPMLIERESTARVSTAHAAEE", "soluble on expression in E. coli": "not soluble"},
      {"sequence": "PFSWMKFVVISRTDLEENGREILIHECAHIRKHHSWDLLIADICIFFQWFNPGAWLLKQELQNIHEYEADEAVINEGINARDYQLLLI", "soluble on expression in E. coli": "not soluble"},
      {"sequence": "MNIKKLAILGTLATTFSFEAFASTGMPKIEELTGDTRTACEVILCLSSAQGRGIKECQAPLRKYFSIRAKKWHKTLAKRRAFLDLCPAANENAKMSALTTAIQHQEYACDAGTLNSRTETRRNWVRRSSEDGGSFSRRLVRTQAYIPDFCKALYDHEFTEYKQIQKPKYVCDANKWYSQADWNRGFERVEVSRKWNHREDRYDIQYKDVPIKKDCWELEHHHHHH", "soluble on expression in E. coli": "not soluble"},
      {"sequence": "MLTKVIEQAKIDHFTKWFERADKIVIVSHVSPDGDAIGSSLGLYHFLDSQEKTVNVIVPNAFPDFLRWMPGSKDILLYDRYKDFADKLIAEADVICCLDFNALKRIDEMADAVAASPARKVMIDHHLYPEEFCKITMSYPKISSTSELIFRLICRMGYFSDISKEGAECIYTGMMTDTGGFTYNSNNREIYFIISELLSKGIDKDDIYRKVYNTYSESRLRLMGYVLSNMVVYSDYNAALISLTKEEQSKFDYIKGDSEGFVNIPLTIKNVCFSCFLREDTEKPMIKISLRSVGTFPCNQLAAEFFNGGGHLNASGGEFFGTIEEAKAVFEQALEKYKPLLTAKSLEHHHHHH", "soluble on expression in E. coli": "soluble"},
      {"sequence": "MGSDKIHHHHHHMNAPFVPSRVVARLADPGERPAVARFLDAHPDATVFHRAAWLDAVEQSTGHRTHVLVSGQDEAIRAVLPLHEVHSPLFGRALVSTGFGVGGGVVGKGDAALFAAAQELAVRLNCPTVELRGGPLPQGDGWHVKTDSHAGFVTPLAADDEAQLLAIPRKQRAEVRRGLGYGMEVRTGRSPEDRAMHHAVYAQSVRNLGTPVFPRRLFDAVLDGFGDDADILTVLHEGRPLASVLSLYHRGAVMPYWGGGTFEARAMRANDVMYYALMNHARARGCDRFDFGRSKVDSGAYHFKRNWGFAPQPLSYAHWTADGQAPRDVNPLSPRYRARIALWQKLPLAVANRLGPIIANGLA", "soluble on expression in E. coli": "not soluble"},
      {"sequence": "MADSNDLMSEFQKLQQETSKIQSHLTKDFLSSSAKLSENRVLQATQELCGKLTEKQKVQDDTINLLLSALGQIQENQNKILNQFASMQSQLDIVKRRQDAYERDLIQQKPSVPEQKVGESSKKSPRSAESALKYVETCTKVVDLCIAVSMPGRLFSIGANKMESVEQLKMKIECQTGIPRTKFWLRLHGKPLYDDKKLADYKWDTSVELLVRAS", "soluble on expression in E. coli": "not soluble"},
      {"sequence": "EVMLVESGGGLVKPGGSLKLSCAASGFTFSSYTMSWVRQTPEKRLEWVATISSGGGNTYYPDSVKGRFTISRDIAKNTLYLQMSSLRSEDTALYYCTRLGDYGYAYTMDYWGQGTSVTVSSAKTTPPSVYPLAPGGGGGGGAMVTLGCLVKGYFPEPVTVTWNSGSLSSGVHTFPAVLQSDLYTLSSSVTVPSSPWPSETVTCNVAHPASSTKVDKKIVPRDC", "soluble on expression in E. coli": "soluble"},
      {"sequence": "MGVISAYAVVHERAAIIDPGTAKGAEIILDEIDRSWNVEYICPTHIHIDHGGGAARLAKALDAKIIVHPRGVKHVVNPEKLWEASKAVLGEVAEIYGKPESIDESKVIAVEDEQEFDLGGERLKVFHAPGHAPHMLVYYLTNSKVLFPADAVGMCFGGVVFPLTPPPFDADAALKTLKRLKGLKVDYVAFTHYGVVELEHHHHHH", "soluble on expression in E. coli": "soluble"},
      {"sequence": "MSRNLHHTEEIYQSSYLNSSLIEFMPNTILPGKETVFMSSKMEQIIEEIEDYIDGCKPSPISRNKILVNREQLEELLSELRTKTPEEVKRYQKIISNKEAILADAQAKADQIIAQAQIQTNELVSEHQIMQQAYAQANEVVQIATKQAQEILDSATNEANNLRMSAMAYTDSQLKSIEDILTGSIETSKARYDSLISSLQQFEDVVAANRAELFPPEENGDEAAGAESSDNEATSDTSDDDIEITNISDSDEDAK", "soluble on expression in E. coli": "not soluble"},
      {"sequence": "LLRMHESLARRQLAEVERLDLVRQVRELIGELLVDGGATLEQVAARLGMPARRLRERLAMAGVRFNDLVTDYRCRLAKE", "soluble on expression in E. coli": "not soluble"},
      {"sequence": "MSLTPIEAMKLAAGEIAGEKSLKTLAEVVDILSQEQDVTKRFGQKGLGQRNLGRAVQLLVESSETNEGRCMVAYDVFKSLERIVLDYVPDQNDRAKYLEDLKIAKGLYRERIMTEMFNAYMDEPYAVKKDVMNYVNMIIGIDAESLGPDRMWKYKDPQTGELKALKIDERYVKNVEDRLGLKTDEQRESFRTSIRKIYGQKISVDSTYDFMDNLELVKAVTDVRLKSDIAGAGSLIGALANRTNEENQKLYDRMVDTMLKKLGYCRTCAQKTIEYFCTQEDEGHHHHHH", "soluble on expression in E. coli": "soluble"},
      {"sequence": "MGSDKIHHHHHHMNKIGYNMFQVDKNYWLVIAPYVYCCIKGKKALLYNTKNWEYLEVENENVIGLLRQLHKRDNLGAVFCEGKMLTELCYSNFISDFVLKEMGGVIDVASFPDKPIQMMPILNLQCDVDKLQQIEDRGIGEDILFNLLEINVFLYNVCDHHCLYCSKYSQQNLCCRVAETETSQVLDISALKSIIAQIRYGVVGRLNLFGGNIWKYPNYNDIPFLLSGFKGQIHIWSHYADFVGNKILDSDFFYDVIVPFPMEEELLRNCIFLLGDLQIKIHFYVTQIDEYAKAEEIVHKYAINDYSIHSTYVGCNLDYFEKYVYMDKGDILQSQYSMSQIFAHQKMNSHFFGSLSISVNGDVYANLNSLVLGNIYKDSLIDIVNKEMLDNTAWRKIRNDYPCCDCIYQWLCPSPSNYELAIGKPNLCHVKP", "soluble on expression in E. coli": "not soluble"},
      {"sequence": "MSLAKTIAYLRVSTSQQDLKNQKFEILDYAQKNGLSIDDFVEVEISSRKSVEERKIDYLVSMLSQGDRVIVSELSRIGRSTVEVLNIINELASKKVFLIAIKQNLNINGSENLQAKVMVTMFSLFAELERDLISDRTKRALEARKAAGVKLGRPKGATGVSKLDGMEGQITELLRKQVSLSSIAKIFSVSRGTVYSFIATRGLTAEGHHHHHH", "soluble on expression in E. coli": "not soluble"},
      {"sequence": "MAHHHHHHMSKLIKLDCGVQHYAWGKEAAESYVAKMKGEGNKEGKYAELWVGTHPNCPSKTFSGQNLDDFLKNDNNMSRFVHPKQQADPRFRDTVPFLLKLLSVQTALSIQAHPNKQLAEKLHRENPEKYKDPNHKPELVVALTPFEALCCFRPLKDILEFLESASPLKTLLGPAADVLPGEVEDSEAIKHMMDIVYNTDAKKHAEALQEHAEELRSRGGEMTKEDSVFLRVLYQYPDDMGCWMVYFLNYVQLAPGEGLFLADSEPHAYLFGDSVEIMACSDNVVRAGLTPKWKDVPTLLRMLRYGTDGLERAKFERYRAPEGSEWELQHYSPPREFQDFSLYRIEHRVERQGQTHIKLPTVGLGFCVEGCGIVNGERVRLGECFLVPYGDLKIEAFGDFQIFVASMNYSLHSASHM", "soluble on expression in E. coli": "soluble"},
      {"sequence": "MNYHQYYPVDIVNGPGTRCTLFVSGCVHECPGCYNKSTWRVNSGQPFTKAMEDQIINDLNDTRIKRQGISLSGGDPLHPQNVPDILKLVQRIRAECPGKDIWVWTGYKLDELNAAQMQVVDLINVLVDGKFVQDLKDPSLIWRGSSNQVVHHLRLEHHHHHH", "soluble on expression in E. coli": "soluble"},
      {"sequence": "MKNTKLLLAIATSAALLTGCQNTHGIDTNMAISSGLNAYKAATLSDADAKAIANQGCAEMDSGNQVASKSSKYGKRLAKIAKALGNNINGTPVNYKVYMTSDVNAWAMANGCVRVYSGLMDMMNDNEIEGVLGHELGHVALGHSLAEMKASYAIVAARDAISATSGVASQLSRSQLGDIAEGAINAKYSRDKESEADDFSFDLLKKRGISTQGLVGSFEKLASLDGGRTQSMFDSHPPSTERAQHIRDRIASGKLEHHHHHH", "soluble on expression in E. coli": "soluble"},
      {"sequence": "MKLERQKLLAKVAYLYYMEGKSQSEIANELGIYRTTISRMLAKAREEGLVRIEISDFNPEIFQLESYFKSKYHLKDIEIVSSRKDSDTSEIEKDLAHVAAAMIRKKIKENDKVGIAWGRTLSKVVEAMRPHPVSQVSFVPLAGGPSHINARYHVNTLVYEMSRRFQGSCTFINATLVQENANLAKGILTSKYFEGLMDNWEKLDVAIVGVGGKPKSNEQQWLDLLNQDDFQCLDEEAAVGEITCRFFNHSGDPVNQHLAKRTIGITLEQLQKVPNRIAVAHGNYKAAALLAVLKKGYINHLVTDFSTALNILRLDKDTFVDTIYQKS", "soluble on expression in E. coli": "not soluble"},
      {"sequence": "MRPNYTVSSSGTNKGSVLAVCNTTYYKSNKLISKNEITLYKGFRSLSTNHKIETIVHEFGHGFGLGHVKTKNAIMLDKGFINKTKPQTDDFNGIKALYKLEHHHHHH", "soluble on expression in E. coli": "not soluble"},
      {"sequence": "MSLAILIVECMQEISSFNPVPSDYELFHIEEGEDLFQHRGRNTAIGGALSVLEATPGVTLIPTVAARADSAGILSAEGWARLSAQILDRVRAGVGGADAIYVSLHGAMGAVGEPDPEGWLLAQIRALAGPDRPIIISLDLHGILTERMIAQVDGIAVYHTYPHVDFADTGARAARLLLDRLTARRPASIVRAVIPALVRGDELITATGCYGDLIRECRRLEADGMVLAAGLMIGNPFTDAPELCSQVVLTTDDPLRGRAEAERLAAAFWALRHRMQGRLIGLSDAVAEARTLTGPVVFTDAADATSSGASGDSNAILRGLLAADYPGRVLAQIVDPQAAEAAHRAGVGAEIPVTLGGRMDPARFTPLEVTARVRLLSDGLTRLETMKTPLNAGRCAVLEFGTVTVVAMSLPAMLFDRAIYYANGLDPADFDLIVVKSPHTEHHMYDAWVTRNFNIDTPGSTSADLASLGHRICARPMFPLDPLTDFTPRATAHLRADRSEGHHHHHH", "soluble on expression in E. coli": "soluble"},
      {"sequence": "QAKQTMQTLSTLNELGSKVEEVRNFFNFELPYRVKHVDQVSLKLQLVYAVRLQLESEVSDANGPDVTQLLYSTDRFLESARAFIGSDGELVSLAEQLHTSRGAENNSQQIENMYYRLGALVLESIFSDSNTNTDTYRELDLLFIESDSLSTGERSAFQRRLAQTSSVLAANAQGSYLANQLLKPDFPNQLVSMKATLEQK", "soluble on expression in E. coli": "not soluble"}
    ]}
  ]
}
